Reference: publication PMC6638984, “Increased association between Epstein-Barr virus EBNA2 from type 2 strains and the transcriptional repressor BS69 restricts EBNA2 activity” (PLoS Pathogens, 2019)

B9: BS69 coiled-coil MYND domain (BS69_(CC-MYND), amino acids 480-602) (domain or fragment, human, UniProt Q15326 480-602, looked up)
chain: DRMKSDHKRETERVVREALEKLRSEMEEEKRQAVNKAVANMQGEMDRKCKQVKEKCKEEFVEEIKKLATQHKQLISQTKKKQWCYNCEEEAMYHCCWNTSYCSIKCQQEHWHAEHKRTCRRKR
notes: BS69 (ZMYND11), human, amino acids 480-602 comprising the coiled-coil and MYND domains, amplified from pCI-BS69 (full length, isoform 1, 602 amino acids); Dimer by SEC-MALS; Expressed from pET49b+ as a GST-6xHis fusion; the tag was cleaved with 3C protease; also called BS69 CC-MYND domain; ZMYND11; source: E. coli Rosetta 2 (DE3) pLysS, purified (cobalt resin, 3C protease cleavage, GSTrap, …)

Legend:
[1] = biological target: T1, BS69 coiled-coil MYND domain (BS69_(CC-MYND), amino acids 480-602) (human, UniProt Q15326-1 480-602); assay: ITC; EBNA2 polypeptide (0.3 or 0.6 mM) titrated into 0.1 mM BS69_(CC-MYND) in the cell, 19 x 2.0 µl injections, 25°C, 20 mM Tris-HCl, 100 mM NaCl, 1 mM TCEP, pH 7.5; one-site (one event) model; n on monomer concentrations; mean of 3 experiments; conditions: both partners purified
T1 construct: cloned into pET49b+; also called ZMYND11 CC-MYND; source: E. coli Rosetta 2 (DE3) pLysS, purified (HisPur cobalt resin, 3C protease cleavage, Superdex 75); not shown: GST, N-terminal, cleaved; His6, N-terminal, cleaved
T1 sequence (looked up): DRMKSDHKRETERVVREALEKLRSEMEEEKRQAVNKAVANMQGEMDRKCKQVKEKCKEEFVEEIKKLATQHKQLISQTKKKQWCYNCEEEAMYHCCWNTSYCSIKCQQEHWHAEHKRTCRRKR

[2] = biological target: B9; assay: ITC; EBNA2 polypeptide (0.3 mM) titrated into 0.1 mM BS69_(CC-MYND) in the cell, 29 x 1.3 μl injections, 25°C, 20 mM Tris-HCl, 100 mM NaCl, 1 mM TCEP, pH 7.5; two-site (two event) model; conditions: both partners purified
[3] = biological target: B9; assay: ITC; EBNA2 polypeptide titrated into 0.1 mM BS69_(CC-MYND) in the cell, 19 x 2.0 μl injections, 25°C, 20 mM Tris-HCl, 100 mM NaCl, 1 mM TCEP, pH 7.5; one-site (one event) model; n calculated for monomeric proteins; conditions: both partners purified
[4] = biological target: B9; assay: ITC; 1 mM EBNA2 peptide titrated into 0.1 mM BS69_(CC-MYND) in the cell, 25°C, 20 mM Tris-HCl, 100 mM NaCl, 1 mM TCEP, pH 7.5; one-site model with n fixed to 1; conditions: both partners purified
[5] = biological target: the molecule itself; assay: SEC-MALS; individual polypeptides, 5 mg/ml, Shodex KW403-4F column, 25°C, 20 mM Tris-HCl, 100 mM NaCl, 1 mM TCEP, pH 7.5

B1: type 2 EBNA2 polypeptide T2 EBNA2_(348-422) (domain or fragment)
chain: SMPQLSPVVSLHQGQGPENSPTPGPSTAGPVCRVTPSATPDISPIHEPESSDSEEPPFLFPSDWYPPTLEPAELD
notes: EBNA2 of type 2 Epstein-Barr virus (AG876), amino acids 348-422 (motifs 1, 2 and 3), in pET47b+; also called T2 E2_(348-422); source: E. coli Rosetta 2 (DE3) pLysS, purified (HisPur cobalt resin, 3C protease cleavage, Superdex 75); not shown: His6, N-terminal, cleaved
[1]
  Kd: 1010 nM

B2: type 2 EBNA2 polypeptide T2 EBNA2_(348-422) (domain or fragment)
chain: SMPQLSPVVSLHQGQGPENSPTPGPSTAGPVCRVTPSATPDISPIHEPESSDSEEPPFLFPSDWYPPTLEPAELD
notes: Monomer alone by SEC-MALS; also called T2 E2_(348-422); type 2 EBNA2_(348-422); source: E. coli Rosetta 2 (DE3) pLysS, purified (cobalt resin, 3C protease cleavage, Superdex 75); not shown: His6, N-terminal, cleaved
[2]
  dH of the second binding event: -1.59 kcal/mol
[3]
  dH: -53.2 kcal/mol
  stoichiometry N: 0.15

B3: T2 EBNA2_(348-422) m3 T1 (PTLEP to the type 1 sequence PSIDP) (domain or fragment)
chain: SMPQLSPVVSLHQGQGPENSPTPGPSTAGPVCRVTPSATPDISPIHEPESSDSEEPPFLFPSDWYPPSIDPAELD
notes: source: E. coli Rosetta 2 (DE3) pLysS, purified (HisPur cobalt resin, 3C protease cleavage, Superdex 75); not shown: His6, N-terminal, cleaved
[1]
  Kd: 1900 nM
  stoichiometry N: 0.25

B4: EBNA2_(348-422) SD + m3 mt (domain or fragment)
chain: SMPQLSPVVSLHQGQGPENSPTPGPSTAGPVCRVTPSATPDISPIHEPESSDSEEPPFLFPDDWYPATAEAAELD
notes: EBNA2 of type 2 Epstein-Barr virus (AG876), residues 348-422, with S409D and motif 3 PTLEP mutated to ATAEA; also called type 2 EBNA2 double mutant (S409D, PTLEP to ATAEA); source: E. coli Rosetta 2 (DE3) pLysS, purified (cobalt resin, 3C protease cleavage, Superdex 75); not shown: His6, N-terminal, cleaved
[2]
  binding result: binds

B5: T2 EBNA2_(348-422) SD mutant (S409D) (domain or fragment)
chain: SMPQLSPVVSLHQGQGPENSPTPGPSTAGPVCRVTPSATPDISPIHEPESSDSEEPPFLFPDDWYPPTLEPAELD
notes: EBNA2 of type 2 Epstein-Barr virus (AG876), residues 348-422, serine to aspartate at position 409; text and methods say position 409; source: E. coli Rosetta 2 (DE3) pLysS, purified (cobalt resin, 3C protease cleavage, Superdex 75); not shown: His6, N-terminal, cleaved
[2]
  dH of the second binding event: -7.65 kcal/mol

B6: EBNA2_(348-422) SD + m3 T1 (domain or fragment)
chain: SMPQLSPVVSLHQGQGPENSPTPGPSTAGPVCRVTPSATPDISPIHEPESSDSEEPPFLFPDDWYPPSIDPAELD
notes: EBNA2 of type 2 Epstein-Barr virus (AG876), residues 348-422, with S409D and motif 3 PTLEP replaced by PSIDP; also called T2 EBNA2_(348-422) SD + m3 T1; type 2 EBNA2 double mutant (S409D, PTLEP to PSIDP); source: E. coli Rosetta 2 (DE3) pLysS, purified (cobalt resin, 3C protease cleavage, Superdex 75); not shown: His6, N-terminal, cleaved
[2]
  binding result: binds

B7: T2 EBNA2_(348-422) motif 3 mt (PTLEP to ATAEA) (domain or fragment)
chain: SMPQLSPVVSLHQGQGPENSPTPGPSTAGPVCRVTPSATPDISPIHEPESSDSEEPPFLFPSDWYPATAEAAELD
notes: EBNA2 of type 2 Epstein-Barr virus (AG876), amino acids 348-422, motif 3 PTLEP_(414-418) mutated to ATAEA; also called T2 EBNA2348-422 m3 mt; source: E. coli Rosetta 2 (DE3) pLysS, purified (HisPur cobalt resin, 3C protease cleavage, Superdex 75); not shown: His6, N-terminal, cleaved
[1]
  Kd: 590 nM
  stoichiometry N: 0.31

B8: T2 EBNA2_(348-422) motif 3 mt (PTLEP to ATAEA) (domain or fragment)
chain: SMPQLSPVVSLHQGQGPENSPTPGPSTAGPVCRVTPSATPDISPIHEPESSDSEEPPFLFPSDWYPATAEAAELD
notes: EBNA2 of type 2 Epstein-Barr virus (AG876), residues 348-422, with motif 3 mutated from PTLEP to ATAEA; also called T2 E2 m3 mt; source: E. coli Rosetta 2 (DE3) pLysS, purified (cobalt resin, 3C protease cleavage, Superdex 75); not shown: His6, N-terminal, cleaved
[3]
  dH: -25.7 kcal/mol
  stoichiometry N: 0.3

## EAPILFPDDWY [type 1 EBNA2 motif 2 peptide (435-445)]
[4]
  Kd: 47700 nM

## B9
[5]
  stoichiometry N: 2

B10: type 2 EBNA2 motif 3 peptide (T2 EBNA2_(412-422)) (peptide)
peptide: YPPTLEPAELD
notes: EBNA2 of type 2 Epstein-Barr virus (AG876), residues 412-422, holding motif 3 (PTLEP 414-418); source: synthetic peptide (Peptide Synthetics)
[4]
  Kd: 219000 nM

B11: type 2 EBNA2 polypeptide T2 EBNA2_(348-412) (domain or fragment)
chain: SMPQLSPVVSLHQGQGPENSPTPGPSTAGPVCRVTPSATPDISPIHEPESSDSEEPPFLFPSDWY
notes: also called type 2 EBNA2_(348-412); source: E. coli Rosetta 2 (DE3) pLysS, purified (cobalt resin, 3C protease cleavage, Superdex 75); not shown: His6, N-terminal, cleaved
[3]
  Kd: 1210 nM
  dH: -22.5 kcal/mol
  stoichiometry N: 0.33

B12: type 2 EBNA2 motif 2 peptide (402-412) (peptide)
peptide: EPPFLFPSDWY
notes: source: synthetic peptide (Peptide Synthetics)
[4]
  Kd: 176000 nM
